Results: article PMC10692919, “Characterization of erythroferrone structural domains relevant to its iron-regulatory function” (The Journal of Biological Chemistry, 2023)

B1: BMP2/6 heterodimer (ligand)
chain 1: QAKHKQRKRLKSSCKRHPLYVDFSDVGWNDWIVAPPGYHAFYCHGECPFPLADHLNSTNHAIVQTLVNSVNSKIPKACCVPTELSAISMLYLDENEKVVLKNYQDMVVEGCGCR
chain 2: SASSRRRQQSRNRSTQSQDVARVSSASDYNSSELKTACRKHELYVSFQDLGWQDWIIAPKGYAANYCDGECSFPLNAHMNATNHAIVQTLVHLMNPEYVPKPCCAPTKLNAISVLYFDDNSNVILKKYRNMVVRACGCH
notes: bone morphogenetic protein 2 chain of the BMP2/6 heterodimer; bone morphogenetic protein 6 chain of the BMP2/6 heterodimer; also called heterodimer of BMP2/6; source: bought: RND Systems #7145-BP-010/CF; copies: 1 + 1
B2: ERFE N terminus ΔCollagen, 43-148 del109-125 (bacterial) (domain or fragment, human, UniProt Q4G0M1 43-148, looked up)
chain: EPPPGNELPRGPGESRAGPAARPPEPTAERAHSVDPRDAWMLFVRQSDKGVNGKKRSRGKAKKLKFIIPPEALLKEFQLLLKGAVRQRE
notes: also called bacterial ΔCollagen N terminus; source: E. coli Rosetta2(DE3)pLysS, purified (Ni-NTA, TEV cleavage, reverse IMAC); not shown: His6, N-terminal, cleaved; MBP, N-terminal, cleaved
B3: ERFE 18-mer peptide 73-90 (peptide, UniProt Q4G0M1 73-90, looked up)
peptide: AHSVDPRDAWMLFVRQSD
notes: human erythroferrone (ERFE), residues 73-90; source: synthetic peptide (GenScript, ≥70% purity)
B4: ERFE 18-mer peptide 97-114 (peptide, UniProt Q4G0M1 97-114, looked up)
peptide: KRSRGKAKKLKFGLPGPP
notes: also called cationic 18-mer peptide; source: synthetic peptide (GenScript, ≥70% purity)
B5: ERFE 18-mer peptide 121-138 (peptide, UniProt Q4G0M1 121-138, looked up)
peptide: GPPGPIIPPEALLKEFQL
notes: human erythroferrone (ERFE), residues 121-138; source: synthetic peptide (GenScript, ≥70% purity)
B6: ERFE 18-mer peptide 133-150 (peptide, UniProt Q4G0M1 133-150, looked up)
peptide: LKEFQLLLKGAVRQRERA
notes: human erythroferrone (ERFE), residues 133-150; source: synthetic peptide (GenScript, ≥70% purity)
B7: BMP2 homodimer (ligand, UniProt P12643 283-396, looked up)
chain: B1 chain 1
notes: bone morphogenetic protein 2; source: bought: RND Systems #355-BM-010/CF
B8: BMP6 homodimer (ligand, UniProt P22004 375-513, looked up)
chain: B1 chain 2
notes: bone morphogenetic protein 6; source: bought: RND Systems 507-BP-020/CF

What was measured:
[1] = target: T1, Full-length ERFE (erythroferrone), 43-354, FLAG-tagged (human, UniProt Q4G0M1 43-354); test: SPR; Biacore T200, CM5 chip; BMP2, BMP6 or BMP2/6 immobilised by amine coupling (50 μg/ml); FLAG-ERFE variants made in HEK293T as analyte; HBS-EP (0.15 M NaCl, 3 mM EDTA, 0.005% P20, 0.01 M Hepes pH 7.4), 50 μl/min; KD = koff/kon at five concentrations; the paper calls the constants avidities where binding is presumed multivalent; details: one partner purified
T1 construct: human erythroferrone (ERFE), mature molecule, residues 43-354; pcDNA3.1(+) backbone; Predominantly a hexamer at low concentration on native PAGE, a smear of 117-460 kDa at high concentration; also called Full length, 43-354; WT, 43-354; source: HEK293T, transiently transfected, in supernatant; not shown: FLAG, N-terminal, kept

[2] = target: T1, Full-length ERFE (erythroferrone), …; test: as above; details: one partner purified; remark: listed apart in the source
BMP2 homodimer [3] = target: B7; test: SPR; Biacore T200, CM5 chip; BMP2, BMP6 or BMP2/6 immobilised by amine coupling (50 μg/ml); purified bacterial untagged ERFE N-terminal variants or synthetic 53-mer segments as analyte; HBS-EP pH 7.4, 50 μl/min; KD = koff/kon at five concentrations; details: both partners purified
BMP2/6 heterodimer [4] = target: B1; test: as above; details: both partners purified
BMP6 homodimer [5] = target: B8; test: as above; details: both partners purified
BMP2 homodimer [6] = target: B7; test: as above; details: both partners purified; remark: listed apart in the source
BMP2/6 heterodimer [7] = target: B1; test: as above; details: both partners purified; remark: listed apart in the source
BMP6 homodimer [8] = target: B8; test: as above; details: both partners purified; remark: listed apart in the source
BMP2 homodimer [9] = target: B7; test: SPR; scan of overlapping synthetic 18-mer peptides of the ERFE N terminus over BMP2/6, BMP2 or BMP6; 180 s injection, then buffer wash; details: both partners purified
BMP2/6 heterodimer [10] = target: B1; test: as above; details: both partners purified
BMP6 homodimer [11] = target: B8; test: as above; details: both partners purified

| Binder | Kd [1] [pM] | koff [2] [s⁻¹] | binding result (BMP2 homodimer [9]) | binding result (BMP2/6 heterodimer [10]) | binding result (BMP6 homodimer [11]) | other results |
| --- | --- | --- | --- | --- | --- | --- |
| B1 | 277 | 0.00022 |  |  |  |  |
| B2 |  |  |  |  |  | Kd (BMP2 homodimer [3]): 3130 pM; pKd (-log Kd) (BMP2 homodimer [3]): 8.7; Kd (BMP2/6 heterodimer [4]): 50100 pM; pKd (-log Kd) (BMP2/6 heterodimer [4]): 7.3; Kd (BMP6 homodimer [5]): 756 pM; pKd (-log Kd) (BMP6 homodimer [5]): 9.2; koff (BMP2 homodimer [6]): 0.0056 s⁻¹; log kd (BMP2 homodimer [6]): -2.29; koff (BMP2/6 heterodimer [7]): 0.0052 s⁻¹; log kd (BMP2/6 heterodimer [7]): -2.29; koff (BMP6 homodimer [8]): 0.0085 s⁻¹; log kd (BMP6 homodimer [8]): -2.17 |
| B3 |  |  | binds | binds | binds |  |
| B4 |  |  | binds | binds | binds |  |
| B5 |  |  | binds | binds | binds |  |
| B6 |  |  | binds | binds | binds |  |
| B7 | 445 | 9e-05 |  |  |  |  |
| B8 | 817 | 0.00022 |  |  |  |  |
